Assay results reported in the Immune Epitope Database (IEDB).

Legend:
[1] = biological target: HLA-B*44:03; assay: IEDB peptide-MHC binding, purified MHC/competitive/radioactivity; ≥ and ≤ were set here for values at or beyond the usual limits of such assays
[2] = biological target: HLA-B*40:01; assay: as above
[3] = biological target: HLA-B*45:01; assay: as above
[4] = biological target: HLA-B*44:02; assay: as above
[5] = biological target: HLA-B*40:02; assay: as above
[6] = biological target: HLA-B*18:01; assay: as above
[7] = biological target: HLA-B*45:01; assay: IEDB peptide-MHC binding, purified MHC/competitive/radioactivity; filed as Kd, often an IC50 or EC50 that approximates it; ≥ and ≤ were set here for values at or beyond the usual limits of such assays
[8] = biological target: HLA-B*18:01; assay: as above; conditions: source organism: Hepatitis B virus
[9] = biological target: HLA-B*40:02; assay: as above; conditions: source organism: Plasmodium falciparum
[10] = biological target: HLA-B*40:01; assay: as above; conditions: source organism: Hepatitis B virus
[11] = source organism: Human immunodeficiency virus 1
[12] = source organism: Hepatitis C virus (isolate HCV-K3a/650)
[13] = source organism: Plasmodium falciparum
[14] = source organism: Hepatitis B virus

AENLWVTVY showed an IC50 [1, 11] of 160 nM, an IC50 [2, 11] of 3370 nM and an IC50 [3, 11] of 68 nM. For the same sequence, the IC50 [4, 11] was 66 nM, the IC50 [5, 11] was 90 nM and the IC50 [6, 11] was 51 nM.

GEIPFYGKAI was tested, and the Kd [7, 12] was 5400 nM, the IC50 [1, 12] was 113 nM and the IC50 [2, 12] was 146 nM. For the same sequence, the IC50 [5, 12] was 87 nM.

Sequence AEAALENLV has an IC50 [1, 12] of 309 nM, an IC50 [2, 12] of 245 nM and an IC50 [3, 12] of 35 nM. The IC50 [5, 12] was 107 nM.

With DEVDLYLLM the IC50 [1, 13] was 84 nM, the IC50 [2, 13] was 2920 nM and the IC50 [4, 13] was 107 nM. It also gave an IC50 [5, 13] of 1020 nM and an IC50 [6, 13] of 17 nM.

In the case of TERQANFL, the Kd [7, 11] is reported as 9720 nM, the IC50 [1, 11] is reported as 2210 nM and the IC50 [2, 11] is reported as 223 nM. It also gave an IC50 [4, 11] of 9050 nM, an IC50 [5, 11] of 23 nM and an IC50 [6, 11] of 304 nM.

In the case of AELLAACFA, the Kd [8] is reported as 13500 nM, the IC50 [1, 14] is reported as 59 nM and the IC50 [2, 14] is reported as 585 nM. It also gave an IC50 [3, 14] of 6.6 nM, an IC50 [4, 14] of 332 nM and an IC50 [5, 14] of 50 nM.

For AELLAACF, the IC50 [1, 14] was 27 nM, the IC50 [2, 14] was 734 nM and the IC50 [3, 14] was 247 nM. It also gave an IC50 [4, 14] of 9.3 nM and an IC50 [5, 14] of 93 nM.

Sequence RETVLEYLV has an IC50 [1, 14] of 4830 nM, an IC50 [2, 14] of 412 nM and an IC50 [3, 14] of 205 nM. The IC50 [5, 14] was 36 nM.

NELNYDNAGI was tested, and the Kd [9] was ≥ 23600 nM, the IC50 [1, 13] was 72 nM and the IC50 [2, 13] was 4130 nM. For the same sequence, the IC50 [3, 13] was 457 nM, the IC50 [4, 13] was 105 nM and the IC50 [6, 13] was 4610 nM.

Sequence QEILDLWVY has a Kd [7, 11] of 6260 nM, an IC50 [1, 11] of 172 nM and an IC50 [2, 11] of 739 nM. It also gave an IC50 [4, 11] of 264 nM, an IC50 [5, 11] of 4520 nM and an IC50 [6, 11] of 52 nM.

In the case of RENANQLVV, the IC50 [1, 13] is reported as 480 nM, the IC50 [2, 13] is reported as 174 nM and the IC50 [3, 13] is reported as 37 nM. It also gave an IC50 [4, 13] of 638 nM, an IC50 [5, 13] of 20 nM and an IC50 [6, 13] of 757 nM.

For VELLSFLPSDF, the Kd [10] was 5560 nM, the Kd [7, 14] was 10400 nM and the IC50 [1, 14] was 412 nM. For the same sequence, the IC50 [4, 14] was 299 nM, the IC50 [5, 14] was 480 nM and the IC50 [6, 14] was 414 nM.

DEFKPIVQY gave an IC50 [1, 13] of 401 nM, an IC50 [4, 13] of 12 nM and an IC50 [6, 13] of 3.9 nM.

For AENLYVTVF, the IC50 [1, 11] was 47 nM, the IC50 [2, 11] was 17 nM and the IC50 [3, 11] was 69 nM. For the same sequence, the IC50 [4, 11] was 39 nM and the IC50 [5, 11] was 3.1 nM.

Work on WEFVNTPPL yielded a Kd [7, 11] of 5210 nM, an IC50 [1, 11] of 378 nM and an IC50 [2, 11] of 2.5 nM. The IC50 [4, 11] was 72 nM, the IC50 [5, 11] was 8.6 nM and the IC50 [6, 11] was 5.9 nM.

Sequence IEAEVIPA has a Kd [7, 11] of 347 nM, an IC50 [1, 11] of 6400 nM and an IC50 [2, 11] of 5950 nM. It also gave an IC50 [4, 11] of 859 nM, an IC50 [5, 11] of 62 nM and an IC50 [6, 11] of 61 nM.

For SENERGYYI, the IC50 [1, 13] was 91 nM, the IC50 [2, 13] was 3730 nM and the IC50 [3, 13] was 336 nM. The IC50 [4, 13] was 150 nM, the IC50 [5, 13] was 227 nM and the IC50 [6, 13] was 301 nM.

In the case of NETPGIRYQY, the Kd [7, 11] is reported as 10600 nM, the IC50 [1, 11] is reported as 62 nM and the IC50 [2, 11] is reported as ≥ 20000 nM. The IC50 [4, 11] was 75 nM, the IC50 [5, 11] was ≥ 20000 nM and the IC50 [6, 11] was 179 nM.
